From patent US20260049103A1, “PEPTIDE, AND COMPOSITION THEREOF AND USE THEREOF” (WINKEY TECHNOLOGY USA INC, priority 2023, published 2026) come the findings set out here.

The assay deals with Human keratinocytes (HaCaT). Description: Cell scratch assay. The note with it: 24 h after scratch, peptides 12.5 ppm, EGF 50 U/mL, compared with blank control, FIG. 8. It is filed as cell-based. Here is the method:
Human keratinocytes (HaCaT) were purchased from the Kunming Cell Bank of China Center for Type Culture Collection under the Chinese Academy of Sciences.
Polypeptide group: Peptide (13) and peptide (20). The test concentrations of all the above samples were 12.5 ppm.
Blank control group: PBS.
Positive control group: 50 U/mL of EGF.
A bottle of HaCaT cells in good exponential growth phase was taken. A 0.25% trypsin digestion solution was added so that digestion allowed the adherent cells to fall off, counting 1 to 4×10^5 cells/mL, which were prepared into a cell suspension.
The cells were inoculated into a 24-well plate at a density of 150,000 cells/well, with 2 mL cell suspension per well. After the cells attached to the wall and grew to 100% confluence, the culture medium was replaced with a medium containing 0.5%-1% fetal bovine serum to maintain the cells for 24 h for synchronization. A sterilized pipette tip was used to scratch a wound, the detached cells were washed off with PBS, and the samples to be tested were added. The incubation was continued in the 5% CO2 incubator at 37° C., and the migration of cells was observed under an optical microscope after 24 h.
The scratch migration experiment of cells can reflect the proliferation and repair ability of cells. […]

B1: EGF: positive control group: 50 U/mL of EGF in the cell scratch assay (protein, UniProt P01133 23-1207, looked up)
Pro-epidermal growth factor: PQHWSCPEGTLAGNGNSTCVGPAPFLIFSHGNSIFRIDTEGTNYEQLVVDAGVSVIMDFHYNEKRIYWVDLERQLLQRVFLNGSRQERVCNIEKNVSGMAINWINEEVIWSNQQEGIITVTDMKGNNSHILLSALKYPANVAVDPVERFIFWSSEVAGSLYRADLDGVGVKALLETSEKITAVSLDVLDKRLFWIQYNREGSNSLICSCDYDGGSVHISKHPTQHNLFAMSLFGDRIFYSTWKMKTIWIANKHTGKDMVRINLHSSFVPLGELKVVHPLAQPKAEDDTWEPEQKLCKLRKGNCSSTVCGQDLQSHLCMCAEGYALSRDRKYCEDVNECAFWNHGCTLGCKNTPGSYYCTCPVGFVLLPDGKRCHQLVSCPRNVSECSHDCVLTSEGPLCFCPEGSVLERDGKTCSGCSSPDNGGCSQLCVPLSPVSWECDCFPGYDLQLDEKSCAASGPQPFLLFANSQDIRHMHFDGTDYGTLLSQQMGMVYALDHDPVENKIYFAHTALKWIERANMDGSQRERLIEEGVDVPEGLAVDWIGRRFYWTDRGKSLIGRSDLNGKRSKIITKENISQPRGIAVHPMAKRLFWTDTGINPRIESSSLQGLGRLVIASSDLIWPSGITIDFLTDKLYWCDAKQSVIEMANLDGSKRRRLTQNDVGHPFAVAVFEDYVWFSDWAMPSVMRVNKRTGKDRVRLQGSMLKPSSLVVVHPLAKPGADPCLYQNGGCEHICKKRLGTAWCSCREGFMKASDGKTCLALDGHQLLAGGEVDLKNQVTPLDILSKTRVSEDNITESQHMLVAEIMVSDQDDCAPVGCSMYARCISEGEDATCQCLKGFAGDGKLCSDIDECEMGVPVCPPASSKCINTEGGYVCRCSEGYQGDGIHCLDIDECQLGEHSCGENASCTNTEGGYTCMCAGRLSEPGLICPDSTPPPHLREDDHHYSVRNSDSECPLSHDGYCLHDGVCMYIEALDKYACNCVVGYIGERCQYRDLKWWELRHAGHGQQQKVIVVAVCVVVLVMLLLLSLWGAHYYRTQKLLSKNPKNPYEESSRDVRSRRPADTEDGMSSCPQPWFVVIKEHQDLKNGGQPVAGEDGQAADGSMQPTSWRQEPQLCGMGTEQGCWIPVSSDKGSCPQVMERSFHMPSYGTQTLEGGVEKPHSLLSANPLWQQRALDPPHQMELTQ
modifications: Pro-epidermal growth factor
notes: positive control group: 50 U/mL of EGF in the cell scratch assay
With B1, the “cell proliferation and migration (scratch spacing)” value is “obvious cell proliferation and migration”.
